Measurements as given in publication PMC3685208.

Columns and labels:
Test in all cases: crystal structure
[1] = target: JCPyV Mad-1 VP1 pentamer S268Y (amino acids 22 to 289) (JC polyomavirus (JCPyV), strain Mad-1)
[2] = target: JCPyV Mad-1 VP1 pentamer (wild type, amino acids 22 to 289) (JC polyomavirus (JCPyV), strain Mad-1)
[3] = target: JCPyV Mad-1 VP1 pentamer L54F (amino acids 22 to 289) (JC polyomavirus (JCPyV), strain Mad-1)
[4] = target: JCPyV Mad-1 VP1 pentamer S268F (amino acids 22 to 289) (JC polyomavirus (JCPyV), strain Mad-1)

JCPyV Mad-1 VP1 pentamer S268Y (amino acids 22 to 289) (domain or fragment)
stoichiometry N [1]: 5

JCPyV Mad-1 VP1 pentamer (wild type, amino acids 22 to 289) (domain or fragment)
stoichiometry N [2]: 5

JCPyV Mad-1 VP1 pentamer L54F (amino acids 22 to 289) (domain or fragment)
stoichiometry N [3]: 5

JCPyV Mad-1 VP1 pentamer S268F (amino acids 22 to 289) (domain or fragment)
stoichiometry N [4]: 5
